Assay results as given in the supplement of paper PMC10126150.
± gives the standard deviation of the averaged measurements.

Tested on: ATP
Experiment: switch fluorescence ratio, 500 uM ATP over buffer (Cy3 cluster intensity, sum of 5 cycles each) (fold (ratio)); higher = stronger signal-on switching upon ATP binding; sequences stand for … in TCGTCGGCAGCGTCAGATGTGTATAAGAGACAGTTTTTTTTTTTTTTTTTTTTTTTTT…TC
Details: aptamer strand: ATP DNA aptamer (quencher-CACCTGGGGGAGTATTGCGGAGGAAGG + anchor), 100 nM annealed; ATP concentration: 500 uM
How it was run: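 Five buffer/ATP imaging cycles were run on Cy3-labelled switching-strand clusters on a modified Illumina MiSeq flow-cell, with NaOH stripping and re-annealing between cycles. In each cycle, clusters annealed to 100 nM quencher-labelled ATP aptamer were imaged in selection buffer, then after 15 min with 500 uM ATP at 22 °C. Per cluster, the fluorescence ratio is summed target-cycle over summed buffer-cycle Cy3 intensity, averaged per switch-domain sequence. Only clusters within 100-1000 RFU were kept.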
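Also: ATP exposure 15 min at 22 °C before imaging.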

With GTGATCTTAT the switch fluorescence ratio was 0.9965 ± 0.0031.

GGATACTCGC was tested, and the switch fluorescence ratio was 1.126 ± 0.01.

In the case of CAAGGATGTG, the switch fluorescence ratio is reported as 0.965 ± 0.041.

TGGTCGTGTG was tested, and the switch fluorescence ratio was 1 ± 0.027.

In the case of TTCCGTTGGG, the switch fluorescence ratio is reported as 1.028 ± 0.0032.

GAGAGTTTAA showed a switch fluorescence ratio of 1.013 ± 0.0051.

Work on TTGGGTTTCT yielded a switch fluorescence ratio of 0.97996 ± 0.00043.

TTCAATTGGT showed a switch fluorescence ratio of 0.974 ± 0.033.

Work on TGATTCAGTA yielded a switch fluorescence ratio of 0.974 ± 0.011.

GAAGTAAGTC gave a switch fluorescence ratio of 1.104 ± 0.0051.

TGGCGAGTCC was tested, and the switch fluorescence ratio was 0.973 ± 0.015.

With GCAAGTTTCA the switch fluorescence ratio was 0.996 ± 0.034.

Sequence AAAAAGTCGG has a switch fluorescence ratio of 1.04 ± 0.029.

In the case of GGCCCCGGGT, the switch fluorescence ratio is reported as 1.18 ± 0.057.

In the case of ATCGGAAAG, the switch fluorescence ratio is reported as 1.65 ± 0.92.

Sequence TTTGGGTCTG has a switch fluorescence ratio of 0.992 ± 0.026.

GTGAGGGAGT gave a switch fluorescence ratio of 1.008 ± 0.006.

Work on GGTTAGGGAC yielded a switch fluorescence ratio of 1.04 ± 0.04.

TTCTGGGTCT gave a switch fluorescence ratio of 0.9833 ± 0.0042.

Sequence ATTGCGTTTG has a switch fluorescence ratio of 1.01 ± 0.026.

Sequence AGTGACCTAG has a switch fluorescence ratio of 1.017 ± 0.0039.

Work on GGGTTTGAGA yielded a switch fluorescence ratio of 1.005 ± 0.0042.

In the case of GGTTTTTAGA, the switch fluorescence ratio is reported as 1 ± 0.013.

Work on TTTCAGTGGT yielded a switch fluorescence ratio of 0.986 ± 0.024.

TGAAAATAG was tested, and the switch fluorescence ratio was 0.992 ± 0.018.

For CATTTAGCAC, the switch fluorescence ratio was 1.131 ± 0.0021.

Work on GCTAGATGCG yielded a switch fluorescence ratio of 0.973 ± 0.03.

Sequence CACTGTGGGT has a switch fluorescence ratio of 0.9744 ± 0.0046.

For CTAGATTCGC, the switch fluorescence ratio was 0.984 ± 0.025.

With TCTGAAAATG the switch fluorescence ratio was 0.998 ± 0.012.

GGTTTTGTTG gave a switch fluorescence ratio of 1.01 ± 0.0013.

Work on TTGTTAGTGG yielded a switch fluorescence ratio of 1.01 ± 0.031.

In the case of ATGTTTATCA, the switch fluorescence ratio is reported as 1.01 ± 0.055.

In the case of TTTACTAGGT, the switch fluorescence ratio is reported as 0.959 ± 0.026.

TGCTGTACGA gave a switch fluorescence ratio of 1.11 ± 0.012.

In the case of GTTAATAGAA, the switch fluorescence ratio is reported as 0.984 ± 0.035.

In the case of TTGAGACTGT, the switch fluorescence ratio is reported as 0.971 ± 0.052.

AAGGGGTATC showed a switch fluorescence ratio of 1.02 ± 0.05.

In the case of CCCCTCGAGG, the switch fluorescence ratio is reported as 0.966 ± 0.049.

In the case of ACAGTACTTG, the switch fluorescence ratio is reported as 1.292 ± 0.0098.

In the case of GGTTTGGGAG, the switch fluorescence ratio is reported as 1 ± 0.036.

Work on GCTGTTGGAA yielded a switch fluorescence ratio of 0.985 ± 0.012.

In the case of TACTGGGTCG, the switch fluorescence ratio is reported as 1.01 ± 0.043.

CAGGGGGTGC was tested, and the switch fluorescence ratio was 1.03 ± 0.072.

With TTGGTGTACT the switch fluorescence ratio was 1.01 ± 0.019.

Work on TAAGAAAGGA yielded a switch fluorescence ratio of 0.997 ± 0.048.

Sequence ACCGGGGGAG has a switch fluorescence ratio of 0.984 ± 0.02.

In the case of GCATCAAGTG, the switch fluorescence ratio is reported as 0.988 ± 0.034.

AAGCGTAAAA gave a switch fluorescence ratio of 0.979 ± 0.024.

For AAAATTAGGA, the switch fluorescence ratio was 1.02 ± 0.069.

For GTCCATTGGG, the switch fluorescence ratio was 1 ± 0.021.

With CTTGGGGGGT the switch fluorescence ratio was 0.97564 ± 0.00052.

Sequence TATGTCGGCG has a switch fluorescence ratio of 0.991 ± 0.055.

For GAGGTAAGTG, the switch fluorescence ratio was 0.954 ± 0.024.

For AAGATGAAT, the switch fluorescence ratio was 0.975 ± 0.04.

GGACCGGCCG showed a switch fluorescence ratio of 1.01 ± 0.076.

GTGGTGGTTG was tested, and the switch fluorescence ratio was 1.01 ± 0.028.

Work on GTAGAGCGGG yielded a switch fluorescence ratio of 0.9889 ± 0.0042.

For GCAAGGTAAA, the switch fluorescence ratio was 1.01 ± 0.037.

For AGGCAATGTC, the switch fluorescence ratio was 1.48 ± 0.17.

GAGTCATTAA was tested, and the switch fluorescence ratio was 0.96 ± 0.041.

CGCCTCATGA showed a switch fluorescence ratio of 1.04 ± 0.029.

Work on TCACAGTTGC yielded a switch fluorescence ratio of 0.99 ± 0.12.

In the case of GGGGGAATAA, the switch fluorescence ratio is reported as 1.54 ± 0.73.

TTGATCGTGC gave a switch fluorescence ratio of 1.12 ± 0.18.

In the case of GACAGAGGGA, the switch fluorescence ratio is reported as 1.02 ± 0.031.

Work on TGGGGAACG yielded a switch fluorescence ratio of 0.9595 ± 0.006.

With GCCAGGCCGA the switch fluorescence ratio was 0.979 ± 0.034.

With TAGGTCTGCA the switch fluorescence ratio was 1.033 ± 0.0058.

ACGGTAGGGT was tested, and the switch fluorescence ratio was 1.12 ± 0.06.

In the case of TTGAGGCGGA, the switch fluorescence ratio is reported as 1.04 ± 0.033.

With GGGCCGTTGG the switch fluorescence ratio was 0.976 ± 0.042.

ATTCAATCGA gave a switch fluorescence ratio of 1.018 ± 0.0031.

In the case of CTCTTAGGGG, the switch fluorescence ratio is reported as 1.12 ± 0.16.

Sequence CCGGGGCTTT has a switch fluorescence ratio of 1.17 ± 0.021.

CTTGTAACCT showed a switch fluorescence ratio of 1.8 ± 0.061.

Work on GGGGGAATGG yielded a switch fluorescence ratio of 1.11 ± 0.17.

Work on AGGCGGGGTT yielded a switch fluorescence ratio of 1.01 ± 0.026.

Work on GTTTTATGGT yielded a switch fluorescence ratio of 0.968 ± 0.0075.

In the case of AAGTATGTTC, the switch fluorescence ratio is reported as 1.004 ± 0.0014.

TTAGTGGGGA gave a switch fluorescence ratio of 1.01 ± 0.039.

In the case of GCCCCGTTTG, the switch fluorescence ratio is reported as 1.0184 ± 0.00021.

Sequence CGGGGGTTTT has a switch fluorescence ratio of 0.994 ± 0.034.

Sequence GAGTATATGT has a switch fluorescence ratio of 0.9998 ± 0.0099.

Sequence ATATCCTAGT has a switch fluorescence ratio of 0.987 ± 0.029.

In the case of TTTGGGATAG, the switch fluorescence ratio is reported as 1.01 ± 0.049.

AGCTAGCCTT showed a switch fluorescence ratio of 1.02 ± 0.028.

For ATGTGGGCGG, the switch fluorescence ratio was 0.991 ± 0.028.

With AGAGTGGTAG the switch fluorescence ratio was 0.99 ± 0.013.

GACATTGTGT showed a switch fluorescence ratio of 0.98604 ± 0.00074.

In the case of ATAAGTTAGT, the switch fluorescence ratio is reported as 0.989 ± 0.016.

With AGCCCGGAAA the switch fluorescence ratio was 1.023 ± 0.0038.

ACGGTGTATT gave a switch fluorescence ratio of 0.998 ± 0.037.

GCTTATCCTG gave a switch fluorescence ratio of 0.982 ± 0.041.

Work on CTAGTTTTTA yielded a switch fluorescence ratio of 1.009 ± 0.007.

For CTAATGATGG, the switch fluorescence ratio was 1.01 ± 0.056.

In the case of AAGTAGGGTA, the switch fluorescence ratio is reported as 1.03 ± 0.025.

Work on AGAATGTTGC yielded a switch fluorescence ratio of 0.9482 ± 0.0035.

CGAAAATAAT gave a switch fluorescence ratio of 0.9817 ± 0.0022.

With ATACTTCATT the switch fluorescence ratio was 1.03 ± 0.032.

In the case of GGAATATATA, the switch fluorescence ratio is reported as 0.951 ± 0.013.

Work on GGTTAAGGGG yielded a switch fluorescence ratio of 1.05 ± 0.13.

In the case of ACGAGTCTGG, the switch fluorescence ratio is reported as 1.08 ± 0.039.

Sequence GCAGTATACC has a switch fluorescence ratio of 1.15 ± 0.019.

With CAGCGGCTGT the switch fluorescence ratio was 0.966 ± 0.026.

In the case of TTTTTAACAT, the switch fluorescence ratio is reported as 0.993 ± 0.033.

AATACCGTTT was tested, and the switch fluorescence ratio was 1.05 ± 0.03.

Sequence GGGTTATTTC has a switch fluorescence ratio of 1.02 ± 0.023.

TTTCGTGACT gave a switch fluorescence ratio of 1.02 ± 0.035.

Work on TTAGTACCAT yielded a switch fluorescence ratio of 1.01 ± 0.028.

For TATATTTCGG, the switch fluorescence ratio was 0.995 ± 0.044.

GTTTTTAATG gave a switch fluorescence ratio of 0.969 ± 0.011.

Sequence TAGGTTCCTT has a switch fluorescence ratio of 0.986 ± 0.035.

CAATTTTCGG gave a switch fluorescence ratio of 0.989 ± 0.022.

In the case of CTCATGGGGA, the switch fluorescence ratio is reported as 1.04 ± 0.075.

Sequence CGACTACTTT has a switch fluorescence ratio of 1.05 ± 0.031.

In the case of CCAGGCGCGG, the switch fluorescence ratio is reported as 1.05 ± 0.055.

For CGGTCGCAGT, the switch fluorescence ratio was 1.02 ± 0.055.

GAGTGTTTAG gave a switch fluorescence ratio of 1.01 ± 0.016.

In the case of GCGCTGGGTG, the switch fluorescence ratio is reported as 1.11 ± 0.16.

With GGAGATGGGG the switch fluorescence ratio was 1.02 ± 0.018.

In the case of TTATTGTTGT, the switch fluorescence ratio is reported as 1 ± 0.014.

TTTTGGGGTG gave a switch fluorescence ratio of 1.05 ± 0.12.

AAACGCTGCG gave a switch fluorescence ratio of 1.02 ± 0.035.

Work on AACTTTAGTT yielded a switch fluorescence ratio of 1.02 ± 0.027.

TTCAGGTGGT showed a switch fluorescence ratio of 1.06 ± 0.13.

GCACGAGGAA showed a switch fluorescence ratio of 1.043 ± 0.0063.

AGTTTGTTCT was tested, and the switch fluorescence ratio was 0.999 ± 0.01.

GGGGGTATGG was tested, and the switch fluorescence ratio was 0.983 ± 0.032.

Work on ATTTAAAGAT yielded a switch fluorescence ratio of 0.987 ± 0.049.

Work on TCTCTGTCGG yielded a switch fluorescence ratio of 1.05 ± 0.011.

In the case of GGGTTTCGTG, the switch fluorescence ratio is reported as 0.993 ± 0.015.

GGTATATGTT gave a switch fluorescence ratio of 1.01 ± 0.015.

GGGTGGGAGT was tested, and the switch fluorescence ratio was 1.026 ± 0.0097.

Work on CCATGGCTGG yielded a switch fluorescence ratio of 1 ± 0.016.

GGCTATATTT was tested, and the switch fluorescence ratio was 0.991 ± 0.017.

With CACGTACGGG the switch fluorescence ratio was 1.59 ± 0.089.

TACCCCAATT gave a switch fluorescence ratio of 1.068 ± 0.0037.

In the case of AAGGAAAACG, the switch fluorescence ratio is reported as 0.969 ± 0.021.

TTCCCATTTT gave a switch fluorescence ratio of 0.995 ± 0.013.

Work on GAAATGCGGC yielded a switch fluorescence ratio of 0.97935 ± 0.00044.

Work on ATTATTATGT yielded a switch fluorescence ratio of 0.978 ± 0.01.

Work on CATCCTTGGA yielded a switch fluorescence ratio of 0.996 ± 0.012.

ATTTAAGCTC showed a switch fluorescence ratio of 0.987 ± 0.024.

Sequence GACCTTTTTC has a switch fluorescence ratio of 1.03 ± 0.068.

AACGTCAGTT showed a switch fluorescence ratio of 1.003 ± 0.0017.

TGTGGGAAAA was tested, and the switch fluorescence ratio was 1.02 ± 0.048.

TAAGAGGCCA was tested, and the switch fluorescence ratio was 1.02 ± 0.017.

In the case of GCATTAAAGG, the switch fluorescence ratio is reported as 0.981 ± 0.04.

Sequence AGACAAGTGG has a switch fluorescence ratio of 0.957 ± 0.026.

GGGTTAATTC gave a switch fluorescence ratio of 1.03 ± 0.088.

For CGTGTGTTTT, the switch fluorescence ratio was 1 ± 0.0068.

In the case of TAAGGTTCAC, the switch fluorescence ratio is reported as 1.003 ± 0.0083.

TGGGGACAGT was tested, and the switch fluorescence ratio was 1 ± 0.017.

With CATCTCCGGT the switch fluorescence ratio was 1.13 ± 0.0087.

TTTTTTTTAA showed a switch fluorescence ratio of 1.01 ± 0.045.

ATAACTTTTT showed a switch fluorescence ratio of 0.992 ± 0.054.
